According to paper PMC4177747, “Derlin-1 Regulates Mutant VCP-Linked Pathogenesis and Endoplasmic Reticulum Stress-Induced Apoptosis” (PLoS Genetics, 2014):

Target: T1, TER94 (endogenous, the fly VCP homolog) (Drosophila (endogenous in flies), UniProt Q7KN62 1-801)
T1 construct: TER94, the Drosophila homolog of VCP, endogenous, detected with anti-VCP; also called TER94^WT; source: endogenous, whole fly lysate
Assay: co-IP; anti-VCP on protein A-agarose; lysates of wild-type flies untreated or kept at 0°C for two hours and recovered for four hours at 25°C; blot with anti-VCP and anti-Derlin-1
Settings: partners not purified

T1 sequence (Q7KN62 whole entry): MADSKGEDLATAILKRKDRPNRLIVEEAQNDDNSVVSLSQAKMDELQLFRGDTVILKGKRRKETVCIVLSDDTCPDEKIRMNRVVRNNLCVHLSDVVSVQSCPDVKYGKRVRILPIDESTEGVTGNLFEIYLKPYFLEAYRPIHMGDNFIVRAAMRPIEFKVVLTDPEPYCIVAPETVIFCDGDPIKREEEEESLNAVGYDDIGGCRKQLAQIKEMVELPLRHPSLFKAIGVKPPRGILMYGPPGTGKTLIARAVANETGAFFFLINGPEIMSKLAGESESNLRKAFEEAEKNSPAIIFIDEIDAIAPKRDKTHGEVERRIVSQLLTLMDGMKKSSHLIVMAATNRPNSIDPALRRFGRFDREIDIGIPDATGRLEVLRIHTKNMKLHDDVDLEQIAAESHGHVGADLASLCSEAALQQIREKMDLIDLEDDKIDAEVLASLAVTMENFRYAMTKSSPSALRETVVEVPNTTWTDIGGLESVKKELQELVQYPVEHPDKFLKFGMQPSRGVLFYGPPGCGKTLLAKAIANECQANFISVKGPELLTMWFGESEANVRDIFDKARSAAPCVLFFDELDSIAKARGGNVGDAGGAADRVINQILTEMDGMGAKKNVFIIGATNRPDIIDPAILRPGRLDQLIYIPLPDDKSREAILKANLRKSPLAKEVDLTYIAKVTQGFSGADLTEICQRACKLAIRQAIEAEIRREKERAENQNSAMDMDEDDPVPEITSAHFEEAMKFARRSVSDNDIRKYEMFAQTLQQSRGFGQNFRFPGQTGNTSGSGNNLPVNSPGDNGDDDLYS

B1: Derlin-1 (endogenous, fly) (natural protein, Drosophila (endogenous in flies), UniProt Q9VQ57 1-245, looked up)
chain: MDAGVWYRSLPRFTRYWLTATVVLSMLCRFDVIPLHWLHLDRSAVFSKLQLWRCMTSLFVFPISSNTAFHFLINCFFIVQYSSKLEKDQYSRSPADYLYLLIVSAVLANIGGMIFNVYFLMDTLVLAITYIWCQLNKDVTVSFWFGTRFKAMYLPWVLAAFEFIFHFSLASLVGIFVGHVYYFFKFQYSQDLGGTPLLETPQFLKRLVPDVSGGFGGFGLPPESRAPPRQATESPWGRGMTLGRN
notes: Derlin-1, Drosophila, endogenous protein of about 27 kD (predicted 28.25 kD); also called endogenous Derlin-1; source: endogenous, whole fly lysate
With B1 the “fold increase of the level of Derlin-1/TER94 complexes after cold treatment against untreated (normalised to TER94)” value was 4.9 ± 0.98 fold.
